This data set in a line: protease stability score; higher = more stable; yeast display proteolysis, trypsin and chymotrypsin.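 Also: relative to predicted unfolded state with 0 unfolded-like and 1 meaning tenfold more protease.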
In turn, “DEEEEFAKELIEEVTKTILTGDFRTFLELFDPNARLEFNGREIHGMEDWLKMMDELRREIWIHHNHNHRIEVQGDKAHTESRLDVSYNGQRYTLHSRLSIDVVDGRLKRLEYRTK” registered a protease stability score of 1.5.
“DEEEEFATRIMKILLKALLTGDETTLKHLIDPHTRFIFVIGEKIVHVHGRDEIAKFWETLRREIRIEDITIDRIRVQGEKVETDGYIHIWIGDKLVDVESHDEWVIVNGRIKHIRMEIK” registered a protease stability score of 1.93.
Turning to “DEEEEFLHTLLRIFVEALMTGDEELLKKLADPHTKVRFNGQERHGWHAIQWMIEFFKNVRIEIHDMHIQGDKVHIDGRLKQGDKKLEMRIIIVIVNGKVHNEEYDLR”, the protease stability score is 1.12.
In the case of “DEEEEFLRLILETLRHAAETGDWHILNRLLDPDARIVIGDKEIHGREKVQHEFRRIDHYQWHHIILDRVHIYDGRIELHGQVEEELNVDGQRIRRLTDTHFVIVKVDGQWKIHTIEIR” it was 2.22; in that of “DEEEEFQRELVKLLVEWVHTGDWEHISKYADPHVKVHVDGRDSIGREEMRKTLKRFSDLLGADHIRFEHVRIIDGRVTIHSRVEYGDKEHHIIIQSSKIDGRWYLHSVDIR”, 0.995.
To “DEEEEFYEKMFRLWFELLLTGDESTLIKLLDPHVRIDFNGRELIGWFYLSHFMREFRHRFDHVEIIIRRVTVIDGVARSDLELRVNINGKDHTVKTEVHIRVVNGRMKSLEFHIK” belongs 0.965.
In the case of “DEEEEHAEHMLRLWFHILHTGDWEDLVRLIDPNARLRVGDKTFHGMERLVRRHLEHKRRLGLDNFDFQVDNFEVYGDKIDIDVTENINGREYKVIIHIIVINGRVKNMHIKIN”, the protease stability score amounted to 0.925.
In turn, “DEEEEHAITFMKILIHLWITGDWETLKRLADPDTKVIERFNGKRVEIHGRELWSKIRKEIIDQLRIRIHPHHVSVVGDKLYSDEHLVFHYNGRDIRLDIHLEMVVVNGRMKHFRFHEE” displayed a protease stability score of 1.06.
For the sequence “DEEEEHFKWLVKLIFDAYLTGDEEVLYERADPNVRIDFNGVELHGREEMQRHLEHLMKKFKGLRIELKHFHIQGDKMFFQTEYRYNGKTVEARLFFDVVNGRLKRIIIEHR”, the protease stability score came out at 1.48.
“DEEEEHFRRLLERFLHFWRTGDEDDYHKLADPHARSEVIIGDFRIESHGRHALEIWLRYMGIDHIHLEDSDSQGNKVHVHMHVKVGDKEHHVIIILIVIDGRVHQLTISVRRT” registered a protease stability score of 1.13.
Regarding “DEEEEHLHSVAKRFLHSVETGDWKDLYELLDPHARFESVFNGRKVEHHGREEARKWFQEWVERFKNMRLHIEEVRTQGDKTHVDSRVHYGDKTINTIIHIVIVNGKVHHVEIRVK”, the protease stability score worked out at 2.2.
The sequence “DEEEEHLRKIMEEMTRANETGDFESWARNADPDYQLNVGDKRKHGREDWQEDLKRVDHLRLEVRIRRMRDVDGRIEVVGDLIIFIKVGEYEFESHSKVIIYIIKINGRWFIKSIEFL” returned a protease stability score of 1.
On to “DEEEEHLRKMTKLLWDQIHTGDEKDFLRLADPNARFEVEINGRKYEAHGREEIKHMLHDILELLGIDHVRLRDLELQGNKVILHSDTHVNGQDSKMRIEILIVNGRLKSFKIQTL”, for which the protease stability score was determined as 0.995.
With “DEEEEHLRTMWEIWMHALRTGDEDFMTNLADPNVRVLILQGDKEEESHGRDELSRLLREIRIEEFTITDVRIQGDKSEADVHVVGQIDGRRTRTKIRISFIIFNGRLHSIRFEIH”, the protease stability score was 2.2.
To “DEEEEHMKHHLDLWIKLVQTGNEEHIARMIDPNARFDINGKEEHGRESFRKHLHEILKFFGVDRFHHEIKELRVIDGRVHSVTLWEINGQRLDTRIHAHKVNGVWLVHSLEIK” belongs 1.14; to “DEEEEHMRKMHEKFRKIRHTGNFEDYFRLLDPNARMHVNGQNMHGRDVVSKWFKHFVEEIRIEHFEIHDVKYIDGRSHEDGWLVGTIDGKHFDSRTEIILIVVDGKLKQFHIHIR”, 0.489; to “DEEEEHSKKMTDWWLHAVLTGDEEKLRQMIDPDVKLHINGKDHVGREEAVKSLRELLHRLGVNHIHVERMDVVGDKVILNFHLRVGDKEHETRVILHIYNGRIKEIRIHIH”, 2.16.
As to “DEEEEHSKLADEEMLHNLLTGNEEHINKMADPNVRIVIGDKELHGMERWREEMRFFKGARIEIKRSRIFTQGDKMHSEVDGTLNFNGRRVEILIVLVVRKVNGRWRIEMISYHIV”, the protease stability score is 1.57.
The sequence “DEEEEHSKNFLRLWINLWLTGDWRNLLKLADPNAKVVINGVRIHGMEFLVRLLHEEMEQVKNMRIHIHDRRLQGDKSTEILILHFDGVFYETRFHIDIVNGKVRRFQEERE” came in with a protease stability score of 0.181.
With “DEEEEHWKHIAKEYLDNFRTGDWKNFMDNADPDYRFILSQGNKEDNHHGMHFFVEWILRFLKKFKNATFVLRHFSIQGNKIHMELDITVGDKRIDTKINIEIIDGVVHTIEIRLD”, the protease stability score came out at 0.821.
To “DEEEEIAHEMVRELVKVLETGDEEIWERLMDPNDRIHIGDKNLVGMDETRKWINEFMERIDHIRVRVRSIHPVDGRANLDTEITTHYNGRTTTYKVLLIVVKVNGRWVLESMHIK” belongs 1.93; to “DEEEEIARKYITLLVKSFLTGDERSIERLVDPHYRHDVGDKHVHGRERFTRHIYENLIRVKGIRVEVIVEHIRVINGRVEVDMQIHWKQGEFQILITSRMHVEKVDGRWLIREVEID”, 0.976.
“DEEEEIARRIFKIFVHNVLTGDEDSLRKMIDPNTRLHVDGQELHGREQALTFLHEMRIDHMELRELRVIDGRIISHIRVDGEINGRRRDIQTEIILYKVDGRWVIRQMRFQ” displayed a protease stability score of 2.39.
To “DEEEEIARRITELWLTYMMTGDEDALIHMADPNVKSILIINGRHVHYHGREYWTKMLRDLGFKHTRIRRVDLQGDYSRLDIEDDFNGVYTRSELRLKVVNGRFHTIEINIH” belongs 1.08; to “DEEEEIFRHLFKLFVDATETGDEHILKELLDPHTRIHVNGQDFHGRENAIHFWRHMRIDEIRLKEIEVQGDKIHITGHVRGQIDGQQVRTDFELIMVKIDGRWKIHSEIYH”, 2; to “DEEEEIIKEQLRILKKNLETGDWKAVLKMFDPNVREDVNGQTLIGRELWAQIFVEMGVDHIIERRVDIQGDKIRLYGQLDQGDKKHTTHIHARKVDGRWTFESVHVR”, 1.08.
Consider “DEEEEILREFSEKWLHAFRTGDWRDIWHLMDPHVKVIIFVDGREKEIHGREEYATQLHERLEKVKGMRFRDKDMDHVNGRLVINVTVHQGDKHKEFRIIIDVVNGRVKRIEIHLH”, for which the protease stability score is 2.06.
The sequence “DEEEEILRRFIEEWLYAELTGDFHVLHELFDPNVRIEINGVDKHGMHIVIKELLEFYRRVKNLRVEFELRDEKRFDGVVIIIGVRRISINGQTHEEETILVIVKVNGRWVMKEIWFN” had a protease stability score of 1.64.
Turning to “DEEEEILRTFIRLMHEAWLTGDWKTFEEMLDPHARLHINGKDLHGREQMARRIEELGIKHVEDKDMETQGNKIHLKQIVYVNGRTFELRQFIIKVNGRWVIQHVEVITR”, the protease stability score was 1.38.
Take “DEEEEIMRKIIEDLRHNTETGDEELMQDLMDPHARIDIDGQKLHGREYVRFLHDEFKGATWIWREVRLQGDKLDVHVEVRFDGRTLHVDIHYVIVNGRTKEIRVHWD”: the protease stability score worked out at 1.28.
With “DEEEEINKKIVEDLFRALITGDEERQLKNMDPNTKIRTNVNGQDYIFHGRDLWVTLWNRFKNLRVEIESVHRQGNKIHFDTRLLFNGRIFQYHIVVISVNGQTKELKEHDE”, the protease stability score was determined as 1.24.
To “DEEEEISRRIVKLLIELFETGDEEKWKELADPDARVDIDGVDSVGRKHAIHLLHEWKEQLGFKHHRIHSIHVYGEFIDVDGLLIVNGRKIRIHFHFIVVNGRLKEQRLHIE” belongs 1.3; to “DEEEEIVMKNARDLIHLTQTGDFEKQRHLLDPHVLVVLVQGDKRIEQHGWHFWKYLMKEIRIKHIRIDHVEAQGNKAQVRGTVDGNINGRDTHWEFELTFVFIDGRIRTIDIRID”, 1.4.
Take “DEEEEKAKHVLELWSRAMLTGDEDEYKKLADPHTRLIVDGQTFHGWENFTKSHNQIKNIKIDDVHVENHHIQGNKMFVDLRFEMEFNGRILHKETHLFIEKIDGKWLIRTQEIH”: the protease stability score was 0.767.

Source of the values: the NTF2 design screens of Basanta et al. (2020).
